Assay results as given in the DeepSol protein solubility set.

Experiment: soluble on expression in E. coli; label from the status in PepcDB or PDB records

Soluble on expression in E. coli, not soluble:
MGSDKIHHHHHHMNIAIDARGINLYRGTGIGTYTENLVRELLNIDEENSYTLYWYGNNYKDFIKSNTKINIVSKGCHSFFEKCYFPENIIKNSIEIYHVPQNGIGLDQNVSCIKVSTVHDLIPYIMPETVGKGYLLKFLKNMPFIIENSDAILTVSEYSKKDILKYFPINEDKIYVTPLAANYNYKPLSREHCKKFIEKNYSISDPFVLYLGGFSKRKNVRNLILAFADASKKLSKKHNLVIIGLCRDELESLKDLCRHLNISNEVIFTGYIGERFLPVFYNACELFVYPSLYEGFGLPVLEAMSCKTPVVTSNISSIPEIAGDSAVLINPLDTSELRDAILNILEDSKLKQKLSIEGFNRSRKFSWKNTSKKTLEAYSNIYNTFA
MGSDKIHHHHHHMNIHYYLIINEQASSGNGRKVARKVIQQLKQQELKYTALYTDYAGHEKELTKELAETTLLPWSEDLDVSTFPILVVLGGDGTLHNVINSLLPYDSTIPLSYIPCGSGNDFARGVGLSRNIDKALHQILRTRRPKEIQTIHYVEANQEEIGLATNNVGLGLDAAIVEKTNESSSKKALNKFKLGSLSYISSIIHVFFRQKGFPILVEMNGKQYTFNRAFLCTVTNHPYFGGGVSIMPTANPRKAVVDLVVVERINIFKILWLIFLLLRQKQGKSKHFHHFQSSKIRIVSTIPQTIHADGEILGKRSIDMVYTTQKRLFWF
MGSDKIHHHHHHMNILAPVSSVKEAEQLIAHGADELYCGIGLGALKNRPGNTDREIWINRRESGNANIPDLESLSLLVDHAHAQGKKVYLTLNQPGYAQDLYGEILAFVREVKKSCQVDAFIVADPGLIRMLIGKEPDMVIHVSSLAGVLNSSAVLFFKKLGVKRIVFPRYLEAETLKKIMDRAGEDLEYEVFILNDGCMFEESHCHVSHQFGGAFCHNPAWRYKLIPPEEGGILETWKLRNLKIAGETFEGNVEEWKRWQWLGIKNGGGYIGAKYPLGMCGLCTLPEYRDMGITSLKIVGREAPLSKKIKSVQLLKKVLDYQREEHLPDEVRDYARRTKGARLLCGSGYMCYER
MGSDKIHHHHHHMNILNIYNEFDINNFDLSVDHYGSEKCDRGYSFGPTIRDNYVIHFILEGKGKLTINQHTLDLAAGDIFLLPKDISTFYQADLQMPWSYIWIGFSGSKAENILKQSSLFKRFYCHSGRSSKLFSQMMTIIQFANTPLTSVNELLMVGELYKLLAALIEEFPLSHLEESNSSTKAYVNQVKKIIHSQYGSSLRVNDIAKKLNLSRSYLYKIFRKSTNLSIKEYILQVRMKRSQYLLENPKLSIAEISNSVGFSDSLAFSKAFKNYFGKSPSKFRKEIQNN
MGSDKIHHHHHHMNIRIGCSGWYYPHWAGKFYPSDLNKSEWFRYYAQKFDTVEINSTFYSFPNAARVRSWVKGSPENFVFSVKVNRTITHVKRLKDCDEEIGLFYEIIGSLGKMLGCVLFQFPPSFKYSHDNLIMIEKALDQRFCNVVEFRNISWFSEDARCDLEKSDLHVVAVSSERIPLWIKEDSVVYVRLHGNVNGYATDYNEEYLTDLAQRIIDVKPQSLYVYFNNDYSGYAPKNAIMLKSIINNLIL
MGSDKIHHHHHHMNKKILIIDDNKMLGKLLAKKIQMTLDYEVDIAFGFAEAKELMNNDYFLAFVDLCLPDAPNGEVVDYVIEKKIPAIVLTASGDKATKEKFMDKDILDYIFKESETCIDEIISSIVKLNQYAKTKVIVAMSKLPERNEIKKILTQRQFNVLAAAHGEEAMSYLNDNNDVKLIIADVNMPVISGFELLTQVRERFSDDELGVILLGDHNDSFEANSFKNGVNEYLFKPLSKESFNCRLDRCLSYMDDKKFLSTYNVLDPVSGVKNYNALIDGIDDYFNEIATKDEEFAFAFLDIDNLQMINDEYGREVGDEVIKICANEIVNETKGRDLVGRYSAEKICILLKNISQERAIKIFSRIRVNIKKAGVLVNLDEVFFTASIGVVFGKSGDKIDSLADKASKILSQAKDNGKDRVEVCS
MGSDKIHHHHHHMNKYIYLLAVVFGLSSCNDFLELSPTNKVIETDYYKTQEDLTEALVAAYDPLKWNAYNAYSSYELVSNIMSDDAETGGSTVSDQPQLQRVNDFTNWVTPTNLPEGLWGRSYEGVNRANIVIEKCPLLPEGTMSAELRDRYVAEAHFLRVFYYFQLWRFFGYIPYYETNLGLDDITTVPQLQPDEVYAKLIEDLDNNVIGKLPKVVPANEKGRATNGAAIAMKARIVLYQNDDTKMKEIASQLKELITDPAYQYDLIPDYKVLFDDEYEWCKESVFEVNYTEIGNSNDWAGKANQGNSDIIMLGARGLKDPNNVYVEGWGFAPVTKALNDAFLPDDPRKWTTIIDHEEFRAEGGTISSDVNQYTGYSVRKYHPRAGYSSTVGTEALNYKNNYRVIRFSDILLMASEALLRSGGSVGEAQDYYARVVKRAMGDDYKVPTVSLDNIYKERRYEFAMEGIRYWDLVRTNQAKDFIKGWDDTKKYLPIPQSEIDKSDGHLVQNPHF
MGSDKIHHHHHHMNLKTTLFNTTYKFKDIKDVLAKANEKKSGDEMAGIAASGARERVAAKTVLADITLEELRNNPVVSYEKDEITRVIQDSVDEEQYKKIKALTVGEFREFLLENDEDKIKEIRDGLTSEMIAAVTKLMSNMDLVYAAQKICNTAKCNTTIGRRGTFSSRLQPNHPTDNPQGIMASLIDGISYGVGDAVIGLNPVADTIESVSDVLKVFNDFTRKWRIPTQNCVLAHITTQMEALKNGVPIDLMFQSIAGSEIANKDFGISVALLDEAYELMKTKKSSKGPNFMYFETGQGTELSSEGNNRADQLVMEARCYGLAKRYKPFLVNTVVGFIGPEYLYDGKQVIRAGLEDHFMGKLTGLSMGVDTCYTNHMKADQNDLENLAMLLLAANCNYLMGIPCGDDVMLMYQSSSYHDIATLREISDKRPIKEFEKRMEELGIMKNGKLTRNAGDPSIFM
MGSDKIHHHHHHMNLRVLGKILLDEMRNGDVAIVEYSSSSPIHRLVWGEIILKYVDRYEFVIDDFFGIGDVMFRTYLRRISSPDEYTKIMEKTKNIKAIKIGPGKISYASKVEELPLTYNLSEFIKLYYPIIRDILAKSSKRVFFITLGLSQYLYLGEAKALETILLSRSVLPIEDWTSIYFLNTDVAPEKAVAALEEISPIVIQVRNNEILVKKI
MGSDKIHHHHHHMNNIIVGMGEALWDVLPEGKKIGGAPANFAYHVSQFGFDSRVVSAVGNDELGDEIMEVFKEKQLKNQIERVDYPTGTVQVTLDDEGVPCYEIKEGVAWDNIPFTDELKRLALNTRAVCFGSLAQRNEVSRATINRFLDTMPDIDGQLKIFDINLRQDFYTKEVLRESFKRCNILKINDEELVTISRMFGYPGIDLQDKCWILLAKYNLKMLILTCGINGSYVFTPGVVSFQETPKVPVADTVGAGDSFTAAFCASILNGKSVPEAHKLAVEVSAYVCTQSGAMPELPVILKDRLL
MGSDKIHHHHHHMNNQVKRRKTKAVNVGKVQVGGGAPVAVQSMTCTDTRNVRETIEQIEALEKAGCEIVRVAVPDAEAASVLGKIKKSISIPLIADIHFNHHYALMAIEQDVDGIRINPGNVGKKNIAEIVRAAKDHNTVIRIGVNAGSLEKELQEKHGGPTAHALTESALNNLAFVEDMGFDRIKLSLKSSHVPTMIDAYRLVADKTDYPLHLGVTEAGTLVTSAVKSSIGMGLLLHEGIGDTIRVSVTGSPVLEIGIAYDILRALDIRRVGPDIISCPTCGRCEIDLFGLVEQVEHSLSGMKDYMKIALMGCVVNGPGEAAEADVGIAGGRGMGLLFKKGQVIRKIREEEFVKALLQEIQEMTGE
MGSDKIHHHHHHMNPFQNSFGGHIPQDVAGKQGENVIFIVYNLTDSPDTVDKVKDVCANFSAMIRSMRNRFPDMQFSCTMGFGADAWTRLFPDKGKPKELSTFSEIKGEKYTAVSTPGDLLFHIRAKQMGLCFEFASILDEKLKGAVVSVDETHGFRYMDGKAIIGFVDGTENPAVDENPYHFAVIGEEDADFAGGSYVFVQKYIHDMVAWNALPVEQQEKVIGRHKFNDVELSDEEKPGNAHNAVTNIGDDLKIVRANMPFANTSKGEYGTYFIGYASTFSTTRRMLENMFIGSPAGNTDRLLDFSTAITGTLFFVPSYDLLGELGE
